This note sets out measurements from patent publication US20060177862A1 (CAMBRIDGE ANTIBODY TECHNOLOGY, published 2006).

The assay deals with T1, TGFβ-1 (UniProt P01137 279-390).
T1 construct: Antigen coated on ELISA plates at 1 µg/ml
Description: method not stated; value listed for the panel of existing phage-display scFv.

T1 sequence (P01137 279-390 limits assumed): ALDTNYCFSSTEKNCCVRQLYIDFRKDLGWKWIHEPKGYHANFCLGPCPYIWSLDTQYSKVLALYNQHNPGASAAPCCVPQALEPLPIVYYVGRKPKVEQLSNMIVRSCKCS

B1: ScFv 1 (scFv, V domains shown)
VH: EVQLVESGGGLVQPGGSLRLSCAASGYAFTNYLIEWVRQAPGKGLEWVGVINPGSGGSNYNEKFKGRATISADNSKNTLYLQMNSLRAEDTAVYYCARSGGFYFDYWGQGTLVTVSS
VL: DIQMTQSPSSLSASVGDRVTITCRASQSVLYSSNQKNYLAWYQQKPGKAPKLLIYWASTRESGVPSRFSGSGSGTDFTLTISSLQPEDFATYYCHQYLSSDTFGQGTKVEIK
As for B1, binding was put at a Kd of 8 nM.
